{
  "source": "patent US20080139477",
  "target": "Flag-tagged collagen type III fusion protein (Flag-helix-C-tel-C-pro) expressed from YEpFlagCOLIII1.6 kb (UniProt P02461)",
  "sequence (P02461 other isoform, or with tags, fused parts or gaps)": "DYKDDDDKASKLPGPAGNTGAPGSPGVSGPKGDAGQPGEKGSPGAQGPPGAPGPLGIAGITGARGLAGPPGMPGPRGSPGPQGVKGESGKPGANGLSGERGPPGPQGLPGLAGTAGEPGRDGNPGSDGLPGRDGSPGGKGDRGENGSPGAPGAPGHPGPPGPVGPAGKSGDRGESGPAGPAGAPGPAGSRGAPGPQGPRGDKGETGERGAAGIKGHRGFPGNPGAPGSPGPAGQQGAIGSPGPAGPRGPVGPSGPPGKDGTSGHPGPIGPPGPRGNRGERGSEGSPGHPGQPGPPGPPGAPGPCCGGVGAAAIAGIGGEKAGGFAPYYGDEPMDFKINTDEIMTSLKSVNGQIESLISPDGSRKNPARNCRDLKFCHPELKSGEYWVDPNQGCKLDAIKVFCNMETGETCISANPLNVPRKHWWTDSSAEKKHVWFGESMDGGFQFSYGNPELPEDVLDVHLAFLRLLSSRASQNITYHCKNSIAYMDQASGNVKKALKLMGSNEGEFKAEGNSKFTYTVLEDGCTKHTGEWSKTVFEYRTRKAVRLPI",
  "data": [
    {"substance": "prolyl-4-hydroxylase (P4H, α2β2) expressed from pYEUra3.2.12β#39α#5", "values": [
      {"measurement": "hydroxyproline by amino acid analysis of the 60 kDa band", "value": "Amino acid analysis revealed the presence of hydroxyproline in this material from co-transformants ... after induction with 0.2% galactose but no hydroxyproline was detected with protein from control samples"}
    ]}
  ]
}
